The series in a line: label from the status in PepcDB records.

In a protein production outcome set (Wang et al. 2014) one finds protein production data, which are given here for 21 sequences.

For the sequence “MSLSSVKDFPKIKAIRSFIIGGVGSGGDYHNVKGGHWLIDSDISTPASKWEQYKKSRTSWGINVLGSFLVEIEATDGTVGFATGFGGPPACWLVHQHFERFLIGADPRNTNLLFEQMYRASMFYGRKGLPIAVISVIDLALWDLLGKVRNEPVYRLIGGATKERLDFYCTGPEPTAAKAMGFWGGKVPLPFCPDDGHEGLRKNVEFLRKHREAVGPDFPIMVDCYMSLNVSYTIELVKACLDLNINWWEECLSPDDTDGFALIKRAHPTVKFTTGEHEYSRYGFRKLVEGRNLDIIQPDVMWLGGLTELLKVAALAAAYDVPVVPHASGPYSYHFQISQPNTPFQEYLANSPDGKSVLPVFGDLFIDEPIPTKGYLTTADLDKPGFGLTINPAARAKLIPSDYLFKVPEIPQNLSTGKEIKSNEQPDKPNGTLDSLAAKVESLTTSTSSEGHHHHHH”, the protein production result is on record as “not failed”.

Turning to “MSLSTFNRIHLVVLDSVGIGAAPDANNFSNAGVPDGASDTLGHISKTVGLNVPNMAKIGLGNIPRDTPLKTVPAENHPTGYVTKLEEVSLGKDTMTGHWEIMGLNITEPFDTFWNGFPEEIISKIEKFSGRKVIREANKPYSGTAVIDDFGPRQMETGELIIYTSADPVLQIAAHEDVIPLDELYRICEYARSITLERPALLGRIIARPYVGKPRNFTRTANRHDYALSPFAPTVLNKLADAGVSTYAVGKINDIFNGSGITNDMGHNKSNSHGVDTLIKTMGLSAFTKGFSFTNLVDFDALYGHRRNAHGYRDCLHEFDERLPEIIAAMKVDDLLLITADHGNDPTYAGTDHTREYVPLLAYSPSFTGNGVLPVGHYADISATIADNFGVDTAMIGESFLDKLIEGHHHHHH”, the protein production result is listed as “not failed”.

With “MSLSYVHTEIQNDALYITLDYPEKKNGLDAELGTSLLEAIRAGNNETSIHSIILQSKHRAYFSSGPRLEDLLICASDQSDVRLREVLHVLNHCVLEIFTSPKVTVALINGYAYGGGFNMMLACDRRIALRRAKFLENFHKMGISPDLGASYFLPRIIGYEQTMNLLLEGKLFTSEEALRLGLIQEICENKQELQERVKNYLKAVSEGYVPAIAATKKLLKGKAAEELKQQLEQETEELVALFKQTEIKKRLEALVEGHHHHHH”, the protein production result is listed as “not failed”.

Regarding “MSLTADPPACTVPAAGVSSTHKLVNGGAEKIVFKIKSSNNNEYRIAPVFGFVDPSGSKDVVITRTAGAPKEDKLVVHFASAPADATDAQAAFVAVAPAGTVTIPMSATA”, the protein production result was “not failed”.

“MSLTARSVVLSVLLGAHPAWATASELIQLTADFGIKETTLRVALTRMVGAGDLVRSADGYRLSDRLLARQRRQDEAMRPRTRAWHGNWHMLIVTSIGTDARTRAALRTCMHHKRFGELREGVWMRPDNLDLDLESDVAARVRMLTARDEAPADLAGQLWDLSGWTEAGHRLLGDMAAATDMPGRFVVAAAMVRHLLTDPMLPAELLPADWPGAGLRAAYHDFATAMAKRRDATQLLEVTEGHHHHHH”: the protein production result was “not failed”.

On to “MSLTFPTLSPTQIIQYIHLGSFLNAHNVDYIHNNNISSILLVGIEVPSLFKDQCDILRLDIVSEEGHQLYDSIPNAIKFIIRSIQRKEGVLIISGTGVNKAPAIVIAFLMYYQRLSFINAFNKVQGLYPLIDIESGFILQLKLFEKKLEKMNSEGHHHHHH”, for which the protein production entry is on record as “not failed”.

For “MSLTNDERILSWNETPSKPRYTPPPGAIDAHCHVFGPMAQFPFSPKAKYLPRDAGPDMLFALRDHLGFARNVIVQASCHGTDNAATLDAIARAQGKARGIAVVDPAIDEAELAALHEGGMRGIRFNFLKRLVDDAPKDKFLEVAGRLPAGWHVVIYFEADILEELRPFMDAIPVPIVIDHMGRPDVRQGPDGADMKAFRRLLDSREDIWFKATCPDRLDPAGPPWDDFARSVAPLVADYADRVIWGTDWPHPNMQDAIPDDGLVVDMIPRIAPTPELQHKMLVTNPMRLYWSEEMEGHHHHHH”, the protein production entry is reported as “not failed”.

On to “MSLTNGEENEEVLFCEKAKLLIFDSDTKGYTSRGVGELKLLRKKDDKGKVRVLCRSEGMGHVLLNTSVVKSFKYQPIDADNENLIKWPIITDGKLETFIIKVKQKADGRRLVGAVADAQQAMEGHHHHHH”, for which the protein production result was “not failed”.

With “MSLTPRNATVAVIGAGDYIGAEIAKKFAAEGFTVFAGRRNGEKLAPLVAEIEAAGGRIVARSLDARNEDEVTAFLNAADAHAPLEVTIFNVGANVNFPILETTDRVFRKVWEMACWAGFVSGRESARLMLAHGQGKIFFTGATASLRGGSGFAAFASAKFGLRAVAQSMARELMPKNIHVAHLIIDSGVDTAWVRERREQMFGKDALANPDLLMPPAAVAGAYWQLYQQPKSAWTFEMEIRPYGEGHHHHHH”, the protein production entry is given as “not failed”.

As for “MSLTSVVFLNPGNSTETFWVSYSQFMQAAARDLGLDLRILYAERDPQNTLQQARELFQGRDKPDYLMLVNEQYVAPQILRLSQGSGIKLFIVNSPLTLDQRELIGQSRQNYSDWIGSMVGDDEEAGYRMLKELLHKLGPVPAGHGIELLAFSGLKVTPAAQLRERGLRRALAEHPQVHLRQLVYGEWNRERAYRQAQQLLKRYPKTQLVWSANDEMALGAMQAARELGRKPGTDLLFSGVNSSPEALQALIDGKLSVLEAGHFTLGGWALVALHDDALGLDARRLGGPDWQLSLFQALTPAQARQLLRLGDQVGTRVDFRGLSAQGKPDSYRYPFGLQLLLREGHHHHHH”, the protein production result was “not failed”.

“MSLTTYDTQPSTLIRNAAAIMTGGRGTADDPSRVPGPDIRIVGDTIDAIGALAPRPGETIVDATDCVIYPAWVNTHHHLFQSLLKGEPAGLDATLTPWLAATPYRFRALFDERRFRLAARIGLIELARSGCATVADHNYVYYPGMPFDSSAILFEEAEKLGLRFVLLRGGATQTRQLEADLPTALRPETLDAYVADIERLAARYHDASPRAMRRVVMAPTTVLYSISPREMRETAAVARRLGLRMHSHLSETVGYQDSAYSMYGKSPVAFCGEHDWLGSDVWYAHLVKVDADEIALLAQTGTGVAHCPQSNGRLGSGICPVREMADAGVPVSIGVDGAASNEAADMISEVHMTWLAQRARLGMLAQPAYRGGSFEGGAGAASIAEVIHWGTAGGARVMGLDEVGKVAVGYAADIAVYRLDDPRYFGLHDPAIGPVASGGRPSVMALFSAGKRVVVDDLIEGVDIKELGGEARRVVRELLREVVVEGHHHHHH”: the protein production result is listed as “not failed”.

Regarding “MSLVLVDHPRPGVALITLNRPERMNSMAFDVMVPLKEALQKVTYDNAVRVVVLTGAGRGFSSGADHKSAGTVPHVEGLTRPTYALRSMEILDEVILALRRLHQPVIAAVNGPAIGGGLCLALAADIRVASTSAYFRAAGINNGLTASELGLSYLLPRAIGSSRAFEIMLTGRDVTAEEAERIGLVSCQVPEEQLLDTCYAIAARIAAFSRPGIELTKRTLWSGLDAGSLEGHMQAEGLGQLFVRLLTANFEEAVAARAERRPPVFTDDK”, the protein production entry was “failed”.

With “MSLVSLPGLPAMISEISKRNNLPTTAVEEALREALLKGYERFRRSQLMGHQFPEEYFNNFEVELDTEEEGFRVLSTKRIVEEVENSDQQISLKEVLEVAEEAQLGDEVVLDVTPEQKDFGRMAAIQTKQVLLQKLRDQQRKIIQEEFQDLEGTVLNARALRFERQSIIVAVQSSFGQPEVEAELPKREQLPNDNYRANSTFRVYLKRVREGSQRGPQLVVSRAAAGLVVDLFSVEVPEIEEEVVRIVAVAREAKPPSPSVGPRTKIAVDTLERDVDPVGACIGARGSRIHAVVNELRGEKIDVIRWSPDPATYIAQALSPARVDQVYLIHAEERHALVIVAEDQLSLAIGKEGQNVRLAARLTGWKIDIKDPETYARDKEAIEQSILERAAASAQARAEREAAEQEAQAKLEAEMAALEAEEAEELEETPEAIAEVEEEVEEWDQDQGPELGEEEELSLEHHHHHH”, the protein production entry was “not failed”.

As to “MSLVTYQTIKVRFQASVCYITFHRPEANNTINDTLIEECLQVLNQCETSTVTVVVLEGLPEVFCFGADFQEIYQEMKRGRKQASSQEPLYDLWMKLQTGPYVTISHVRGKVNAGGLGFVSATDIAIADQTASFSLSELLFGLYPACVLPFLIRRIGRQKAHYMTLMTKPISVQEASEWGLIDAFDAESDVLLRKHLLRLRRLNKKGIAHYKQFMSSLDHQVSRAKATALTANQDMFSDPQNQMGIIRYVETGQFPWEDQEGHHHHHH”, the protein production result is reported as “not failed”.

As for “MSLYDLKPNEKGRIKDIKGDERLSKRLSALGFIEGTEVEVKMMAPLGDPILVNVRGFNIAIRKNDAKNIFLKEAKLEHHHHHH”, the protein production entry was “not failed”.

Regarding “MSLYTILVVDDSPMIVDVFVTMLERGGYRPITAFSGEECLEALNATPPDLVLLDIMMEPMDGWETLERIKTDPATRDIPVLMLTAKPLTPEEANEYGSYIEDYILKPTTHHQLYEAIEHVLARRHSIAADEGHHHHHH”, the protein production result was “not failed”.

Consider “MSMKRSREESQGGGNHNRFVDEGPRLNLPLTKTPELINKIESYLKVHYTCPHQQTENSSKTSTLPKSPEKLKAMNFPISTIKIGDCVFVAKNPDDIVAKFYFAKKKLLWEFLFGEPVANMPRLKSKIEIQWNDVSSFEESINSRDETGILKIELKKRPTFFTETNPQAGKHTQWKQLDYDFTGDQASYYRRHTLHFPPGVLQKNLEKLLTDSFWSKLYKVPFPVHESLYFDIGFENNNSSNGHSKTVGFNVNNGLQHDFSQVRDLKERKKIITLIGIGGVGEGEGNFSMANGGWQRNSYSHVNSLNYNTDNGLLGMQAIPPSSQVANEHYNNTQNDYTGSQFGYRMNQDEIQKMQRIGKILESQAYAVPDTQTKLTSSGMNNGPMYPPAGSYLESRLLEEWYEHTRRFQQ”, for which the protein production entry is “not failed”.

Take “MSMLKPSGLKAPTKILKPGSTALKTPTAVVAPVEKTISSEKASSTPSSETQEEFVDDFRVGERVWVNGNKPGFIQFLGETQFAPGQWAGIVLDEPIGKNDGSVAGVRYFQCEPLKGIFTRPSKLTRKV”: the protein production entry is given as “not failed”.

For the sequence “MSMPILLLVAVILAIYAVAYLFYGRNILQEKVVRASPERETPAIAKFDGVDYVPAHRFVLFGHHFASIAGAGPIVGPAIAMAYGWLLPLVWVLFGNVFMGAVHDYLSLMASVRYGGISIVSVGENLMGRKARYLFLIYVLFTLILVYAAFASIAASLFARDPRVATLSILFMPLALLLGIMMYRMGLGMGPSTVITVVLVIAAFVYSYNHGIVIGTFDPSLPPGEGGWVAYHRWVIILGLYALLAASLPVWYLLQPRDYLNAYILWTGLGLAAIAAILLGTQSLKGPAYTSFQPNIIAGQPTPFWPAIPLIIACGSLSGFHSLVASGTTSKQLASELDALFVGYGAMLLEGALSGLAVIIPISFAWNAPELIQKGVIENNMLDLAAVPRYAVGYGYTLAKTFEMFGVGFDTGYSFFTLFASLMLSMYVLTTLDTGTRLARFAWQELFDWLANVDKNLYSIVTNKWVSSLAVVIIGSALAYPVLEIGAGYKAAYNVVWPAFAGANQMLAAIALLTSALWVYGVLNVRGGTGLLILLPSLFLWVTVTAGLTWWLMVILPVLPAIQQFGAGSMILFTLLLSLLLFALFIINFNKLSKQAGASQQAQA”, the protein production result is on record as “failed”.

“MSMQEMVTISIVTYNSRYIFNVLDQLKAELGTDSIYDIHIYDNHSETAYLEKLTTYEPFITIHRAEENQGFGHGHNQVLFNASTKYAIIFNPDVLVTKDVLDRLLNRIKIDKNIAVVSPKVLNEDGTTQYLVRQKLDVFDYMLRFIPFQFVKKIFDKRLSIYECRDLSDTETTDIKMGSGCFMLIDREKFVEIGGFDERFFMYFEDNDLCLRFGKAGYRILYTPFETVVHMYEKGAHKSRKLFKIFMQSMGKFFNKWGWRFFLEHHHHHH”: the protein production result is given as “not failed”.

As for “MSMYNMDLDKVIRKINKKGARTVGLQFPEGLKMQAVKIAKAIESQTPATVIISGDPCFGACDVSDYKMKGSVDLIVHYGHTPLPLKYEVPTLFIEAFSNIDVKKDLEKCLEKLEDYSKIALVTTTQHLHLLNEIKDYLEDNGKEVVLGSSKNTKKGQVLGCNFSSIKNLDAEVYLFIGSGNFHPLGIYLFTKSPVLALDPYNSEIRDISAFADRILRIRFARITKAREAEKWGIIVSSKEGQYRMKLAKEIKKILEDNKMEAYIIMADNINPDILLPYMELDAFVVSACPRIAIDDSQMYKKPLLTPQELEIVLNKRQWENYQLDEILFHERYK”, the protein production result is reported as “failed”.
